Laboratory results published in article doi:10.1101/2022.09.16.508221 (bioRxiv, 2022).
Values joined by “and” are separate entries in the source; they are usually repeats but may differ in a detail not shown here. Equal values may be shown once.

Assays:
mass photometry = target: the molecule itself; experiment: mass photometry
SEC = target: the molecule itself; experiment: SEC

B1: Hermes transposase (full-length, with the mutations Q2E and K128G) (enzyme, Musca domestica, UniProt Q25438 1-612, looked up)
chain: MEKMDNLEVKAKINQGLYKITPRHKGTSFIWNVLADIQKEDDTLVEGWVFCRKCEKVLKYTTRQTSNLCRHKCCASLKQSRELKTVSADCKKEAIEKCAQWVVRDCRPFSAVSGSGFIDMIKFFIKVGAEYGEHVNVEELLPSPITLSRKVTSDAKEKKALISREIKSAVEKDGASATIDLWTDNYIKRNFLGVTLHYHENNELRDLILGLKSLDFERSTAENIYKKLKAIFSQFNVEDLSSIKFVTDRGANVVKSLANNIRINCSSHLLSNVLENSFEETPELNMPILACKNIVKYFKKANLQHRLRSSLKSECPTRWNSTYTMLRSILDNWESVIQILSEAGETQRIVHINKSIIQTMVNILDGFERIFKELQTCSSPSLCFVVPSILKVKEICSPDVGDVADIAKLKVNIIKNVRIIWEENLSIWHYTAFFFYPPALHMQQEKVAQIKEFCLSKMEDLELINRMSSFNELSATQLNQSDSNSHNSIDLTSHSKDISTTSFFFPQLTQNNSREPPVCPSDEFEFYRKEIVILSEDFKVMEWWNLNSKKYPKLSKLALSLLSIPASSAASERTFSLAGNIITEKRNRIGQQTVDSLLFLNSFYKNFCKLDI
stoichiometry N (mass photometry): 2 | stoichiometry N (SEC): 8 and 6
